From publication PMC7337493 (The Journal of Cell Biology, 2020)

B1: MBP-ATG13MR (domain or fragment, human, UniProt O75143 363-460, looked up)
chain: HDVLETIFVRKVGAFVNKPINQVTLTSLDIPFAMFAPKNLELEDTDPMVNPPDSPETESPLQGSLHSDGSSGGSSGNTHDDFVMIDFKPAFSKDDILP
notes: ATG13, human, middle region, residues 363-460; not shown: MBP, N-terminal, kept
B2: FIP200NTD (domain or fragment, human, UniProt Q8TDY2 1-640, looked up)
chain: MKLYVFLVNTGTTLTFDTELTVQTVADLKHAIQSKYKIAIQHQVLVVNGGECMAADRRVCTYSAGTDTNPIFLFNKEMILCDRPPAIPKTTFSTENDMEIKVEESLMMPAVFHTVASRTQLALEMYEVAKKLCSFCEGLVHDEHLQHQGWAAIMANLEDCSNSYQKLLFKFESIYSNYLQSIEDIKLKLTHLGTAVSVMAKIPLLECLTRHSYRECLGRLDSLPEHEDSEKAEMKRSTELVLSPDMPRTTNESLLTSFPKSVEHVSPDTADAESGKEIRESCQSTVHQQDETTIDTKDGDLPFFNVSLLDWINVQDRPNDVESLVRKCFDSMSRLDPRIIRPFIAECRQTIAKLDNQNMKAIKGLEDRLYALDQMIASCGRLVNEQKELAQGFLANQKRAENLKDASVLPDLCLSHANQLMIMLQNHRKLLDIKQKCTTAKQELANNLHVRLKWCCFVMLHADQDGEKLQALLRLVIELLERVKIVEALSTVPQMYCLAVVEVVRRKMFIKHYREWAGALVKDGKRLYEAEKSKRESFGKLFRKSFLRNRLFRGLDSWPPSFCTQKPRKFDCELPDISLKDLQFLQSFCPSEVQPFLRVPLLCDFEPLHQHVLALHNLVKAAQSLDEMSQTITDLLSEQK
notes: FIP200 (RB1CC1), human, N-terminal domain, residues 1-640 of 1,594; the form printed without a tag in NSEM, MALS, HDX-MS and cryo-EM samples; also called FIP200 N-terminal domain; untagged FIP200NTD
B3: MBP-FIP200NTD (domain or fragment, human, UniProt Q8TDY2 1-640, looked up)
chain: B2 chain
notes: FIP200 (RB1CC1), human, N-terminal domain, residues 1-640; also called N-terminal MBP–tagged FIP200NTD; not shown: MBP, N-terminal, kept
B4: FIP200NTD–MBP (domain or fragment, human, UniProt Q8TDY2 1-640, looked up)
chain: B2 chain
notes: FIP200 (RB1CC1), human, N-terminal domain, residues 1-640 of 1,594; also called FIP200(N-640)–MBP; FIP200-MBP; not shown: GST, N-terminal, cleaved; MBP, C-terminal, kept
B5: ATG13(363-C) (domain or fragment, human, UniProt O75143 363-517, looked up)
chain: HDVLETIFVRKVGAFVNKPINQVTLTSLDIPFAMFAPKNLELEDTDPMVNPPDSPETESPLQGSLHSDGSSGGSSGNTHDDFVMIDFKPAFSKDDILPMDLGTFYREFQNPPQLSSLSIDIGAQSMAEDLDSLPEKLAVHEKNVREFDAFVETLQ
notes: ATG13, human, residue 363 to the C terminus

Tests used:
FIP200NTD [1] = molecular target: B2; assay: negative stain EM; purified samples diluted to ~50–200 nM, uranyl acetate stain, 2D classification; MBP tags used to mark positions; conditions: both partners purified
FIP200NTD [2] = molecular target: B2; assay: SEC-MALS; Superose 6 Increase 10/300 GL; 50 mM Tris, 150 mM NaCl, 1 mM TCEP, pH 7.8; sample ~6–10 µM, 100 µl injected; conditions: both partners purified
[3] = molecular target: the molecule itself; assay: as above
[4] = molecular target: the molecule itself; assay: negative stain EM; purified samples diluted to ~50–200 nM, uranyl acetate stain, 2D classification; MBP tags used to mark positions

Row | Binder | stoichiometry N (FIP200NTD [2]) | stoichiometry N [4] | also measured
1 | B1 | 0.5 molecules per molecule of FIP200NTD (2:1 FIP200NTD:binder) | – | stoichiometry N (FIP200NTD [1]): 1 per FIP200NTD dimer
2 | B2 | – | – | stoichiometry N [3]: 2
3 | B3 | – | 2 | –
4 | B4 | – | 2 | –
5 | B5 | 0.5 molecules per molecule of FIP200NTD (2:1 FIP200NTD:binder) | – | –
